The conditions of this series: Homo sapiens; pH 2.7; Thermal; DSC; glycine 0.05 M; reversible: yes; whole UniProt chain shown.

From FireProtDB (doi:10.1093/protein/12.10.841) come the findings set out here.

B1: Lysozyme C wild type, P61626 (protein)
chain: MKALIVLGLVLLSVTVQGKVFERCELARTLKRLGMDGYRGISLANWMCLAKWESGYNTRATNYNAGDRSTDYGIFQINSRYWCNDGKTPGAVNACHLSCSALLQDNIADAVACAKRVVRDPQGIRAWVAWRNRCQNRDVRQYVQGCGV
Take B1: the midpoint of thermal melting (Tm) (as a rule, the temperature at which the thermal transition is half complete) worked out at 64.9 °C; the “heat capacity change of unfolding” value was 1.58 kcal/mol/K; the “unfolding enthalpy (calorimetric)” value was found to be 114 kcal/mol; the “unfolding enthalpy (van 't Hoff)” value is 120 kcal/mol.
